Publication PMC3265435, “More than just a metabolic regulator - elucidation and validation of new targets of PdhR in Escherichia coli”

Legend:
PdhR (his-tagged) [1] = target: T1, PdhR (his-tagged) (Escherichia coli, UniProt P0ACL9 1-254); experiment: EMSA; 0.1 pmol DNA, 54 pmol PdhR; EMSA as in ref 7; 0.1 pmol of each DNA fragment with 54 pmol PdhR; buffer, salt, pH and temperature not given; details: protein: recombinant, tags: His, chain copies: 2, label: 5'DY682 (strand 1), 5'DY782 (strand 2)
PdhR (his-tagged) [2] = target: T1, PdhR (his-tagged); experiment: EMSA; 0.1 pmol DNA, 54 pmol PdhR; same binding activity as pdhR site; EMSA as in ref 7; 0.1 pmol of each DNA fragment with 54 pmol PdhR; buffer, salt, pH and temperature not given; details: protein: recombinant; tags: His; chain copies: 2; label: 5'DY682 (strand 1); 5'DY782 (strand 2); blunt

T1 sequence (P0ACL9 whole entry, the tested form may be a part): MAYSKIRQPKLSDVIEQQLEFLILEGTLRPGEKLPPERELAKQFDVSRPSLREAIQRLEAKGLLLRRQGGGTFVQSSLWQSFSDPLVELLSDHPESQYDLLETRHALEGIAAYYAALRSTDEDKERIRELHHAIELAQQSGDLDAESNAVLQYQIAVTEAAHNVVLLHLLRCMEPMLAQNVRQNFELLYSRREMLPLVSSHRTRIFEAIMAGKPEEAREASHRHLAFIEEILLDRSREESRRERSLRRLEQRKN

B1: MetBop (dsDNA)
DNA 1: AACGGCTATTTGGGATTTGCTCAATCTATACGCAAAGAAGTTT
DNA 2: AAACTTCTTTGCGTATAGATTGAGCAAATCCCAAATAGCCGTT
B1: no binding (PdhR (his-tagged) [1]; blunt).

B2: GlcDop (dsDNA)
DNA 1: CTATCTCTTTAGCTACCGGTCAGACCATTTTTTTTCCAGCTCT
DNA 2: AGAGCTGGAAAAAAAATGGTCTGACCGGTAGCTAAAGAGATAG
B2: binds (PdhR (his-tagged) [2]).

B3: PdhRop (dsDNA)
DNA 1: GCCGAAGTCAATTGGTCTTACCAATTTCATGTCTGTG
DNA 2: CACAGACATGAAATTGGAAGACCAATTGACTTCGGC
B3: binds (PdhR (his-tagged) [1]; printed strands not exact complements: S23 lacks one T opposite an A of S22 (37/36 nt; possible misprint)).
